Measurements: the supplement of paper PMC10567573
± gives the standard deviation.

Test: protein stability index of a GFP-peptide fusion (GPS, HEK-293T) (PSI 1-6); higher = more stable
[1] = treatment: DMSO, c terminus: a fixed tail appended
[2] = treatment: MLN4924 1 uM, 8 h, c terminus: a fixed tail appended
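Also: 24-mer peptide tiles fused after GFP, lentivirally expressed, FACS-sorted into six equal bins by GFP/DsRed ratio, decoded by Illumina sequencing, PSI is the read-weighted mean bin number.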

| Sequence | protein stability index [1] | protein stability index [2] | protein stability index (treatment: DMSO, c terminus: native) | protein stability index (treatment: MLN4924 1 uM, 8 h, c terminus: native) |
| --- | --- | --- | --- | --- |
| GWAKHIPGFSTLSLADQMSLLQSA [ESRRG] | 2.31 ± 0.22 | 2.5 ± 0.16 |  |  |
| QTLDKKLMSDLRRKRTAHERAKEL [INTS4] | 4.22 ± 0.27 | 4.26 ± 0.25 |  |  |
| FSIPPTNHEIMPGGSVNITCVAVG [PTPRD] | 2.22 ± 0.17 | 2.06 ± 0.14 |  |  |
| NWEAPPGAFDSFLLRFGVPSPSTL [TNXB] | 3.06 ± 0.37 | 2.85 ± 0.28 |  |  |
| LAIQARKRRPKREKHPKKPEPQQK [SRPK2] | 4.32 ± 0.2 | 4.59 ± 0.25 |  |  |
| WFKTRRKEMTQKLEALHLEALCEE [DENND6A] | 3.29 ± 0.27 | 3.88 ± 0.42 |  |  |
| RDVVLCSLLNFLPEGVNKLKISPV [TENT5C] | 2.2 ± 0.44 | 2.02 ± 0.43 |  |  |
| RKPAAGAQSAGTQQVAAVSSVSPA [BRD3] | 4.82 ± 0.12 | 4.86 ± 0.16 |  |  |
| LPAGPLPAPLLVLCPSRAELDRWL [PLEKHN1] | 2.81 ± 0.16 | 2.6 ± 0.22 |  |  |
| HTRSWAVLKLLLLLLLFGVAGGLV [LRRC59] | 2.56 ± 0.44 | 2.44 ± 0.35 |  |  |
| GKSFRQRPSLVIHLRIHTGEKPYK [ZNF449] | 2.72 ± 0.53 | 2.61 ± 0.65 |  |  |
| VLSYLGLLSQEKLQEQHLSSPQGV [BCL2L13] | 2.29 ± 0.31 | 2.32 ± 0.38 |  |  |
| RVSAMRDYRGPDCRYLNFTKGEEI [MIA2] | 3.02 ± 0.58 | 3.26 ± 0.49 |  |  |
| KKLRLVFKSLDKKNDGRIDAQEIM [SLC25A25] | 2.57 ± 0.23 | 2.87 ± 0.31 |  |  |
| GARLVAACSAWLCPGLRLPGSLAG [AUH] | 2.55 ± 1.2 | 3.26 ± 0.84 |  |  |
| TCISELRMLQREGCFRSQGASLRL [M1AP] | 2 ± 0.29 | 2.19 ± 0.37 |  |  |
| AGNNEHCGNIKAPSLQAWNDAPCD [CD207] | 4.75 ± 0.33 | 4.71 ± 0.13 |  |  |
| TILLDGRRVRLELWDTSGQGRFCT [RAB40C] | 2.16 ± 0.2 | 2.14 ± 0.34 |  |  |
| QQTPVGTPKDKRVSNTPLRTVDGS [PALM] | 5.07 ± 0.13 | 5.03 ± 0.15 |  |  |
| NETQPIDLSGLPLQSSKNSYSFQN [RNF180] | 3.95 ± 0.22 | 3.89 ± 0.18 |  |  |
| NFSAAKSLLNKKADGVKPQTNSTK [CAMK2B] | 4.98 ± 0.22 | 4.85 ± 0.34 |  |  |
| PQDRYKAVWLIFFMLGLGTLLPWN [SLC29A1] | 3 ± 0.27 | 3.29 ± 0.37 |  |  |
| RGDSVKVENPSTASHSLSPSEHVQ [ZNF649] | 5.08 ± 0.37 | 5.19 ± 0.6 |  |  |

| Sequence | protein stability index [1] | protein stability index [2] | protein stability index (treatment: DMSO, c terminus: native) | protein stability index (treatment: MLN4924 1 uM, 8 h, c terminus: native) |
| --- | --- | --- | --- | --- |
| AEGARPLRENVPRVIMIVTDGRPQ [MATN2] | 2.83 ± 0.61 | 3.56 ± 0.35 |  |  |
| QKDLIMKVENLTLKNHFQSVLEQL [TAF7L] | 2.66 ± 0.2 | 2.4 ± 0.29 |  |  |
| FGFAQILIPGDAYTDYVATRWYRA [CDKL4] | 2.31 ± 0.58 | 2.84 ± 0.76 |  |  |
| EAAGVQIQMVNESLGYVRSQFLKL [CD207] | 2.334 ± 0.019 | 2.3 ± 0.44 |  |  |
| NIGINGNHSLETCETTLFALRMAT [PTGFR] | 2.34 ± 0.21 | 2.33 ± 0.34 |  |  |
| PSPPPGSHYTSPSENMWNTGSTYN [CARM1] | 3.8 ± 0.43 | 3.81 ± 0.23 |  |  |
| EEYSQIIYSTKLYRFFKYIENRDV [BTBD10] | 1.64 ± 0.19 | 1.87 ± 0.4 |  |  |
| QQVCQWLLWATNEFSLVNVNLQRF [ETS2] | 3.01 ± 0.23 | 2.94 ± 0.42 |  |  |
| RARLDSMVLLIMKLDQLDQDIENA [DLC1] | 2.47 ± 0.22 | 2.4 ± 0.39 |  |  |
| PLMKPHRPWADTCSSSGKDGNLCL [HESX1] | 2.74 ± 0.16 | 2.69 ± 0.21 |  |  |
| IISGVSKVPIAQDELALSLGYAAS [C2CD2L] | 2.58 ± 0.3 | 2.55 ± 0.32 |  |  |
| DENREVLQTLLYFLSDVTAAVKEN [DLC1] | 2.14 ± 0.28 | 2.33 ± 0.19 |  |  |
| VSSSEQLQSYQAEIIELRRTVNAL [KRT33B] | 3.12 ± 0.22 | 3.2 ± 0.42 |  |  |
| ALQNKDTYEPFCKVPVITSSKEEQ [KCTD10] | 4.4 ± 0.14 | 4.5 ± 0.16 |  |  |
| NSLLEEETILHFFVQILLALHHVH [NEK8] | 2.38 ± 0.11 | 2.33 ± 0.35 |  |  |
| HRGLRCSWEGLAVLDSLLLTLLPQ [RSAD1] | 3.06 ± 0.41 | 3.07 ± 0.3 |  |  |
| GVKSRIQALRQMNEGAIDCVNYEG [DLC1] | 3.77 ± 0.32 | 3.87 ± 0.36 |  |  |
| QLQVESNSSQLLLRRHAGLLDGLA [SCARA5] | 2.68 ± 0.26 | 2.9 ± 0.17 |  |  |
| DLPSSTPVANSGTKPKTTAIQGIS [DLC1] | 4.75 ± 0.2 | 4.93 ± 0.065 |  |  |
| GFLPWLMNEVEKTMEYSMVGRTVL [RSPH3] | 2.8 ± 0.54 | 2.94 ± 0.41 |  |  |
| TVPGQALACGSNRFNKLGLDHLSL [NEK8] | 2.44 ± 0.34 | 2.45 ± 0.12 |  |  |
| IDYKTTTILLDGQRVKLKLWDTSG [RAB40A] | 2.27 ± 0.07 | 2.36 ± 0.2 |  |  |
| NSAAATSPKGTLPPAALESSDSAN [CAMK2B] | 5.39 ± 0.096 | 5.37 ± 0.21 |  |  |

| Sequence | protein stability index [1] | protein stability index [2] | protein stability index (treatment: DMSO, c terminus: native) | protein stability index (treatment: MLN4924 1 uM, 8 h, c terminus: native) |
| --- | --- | --- | --- | --- |
| GPEHATRLNGTAKGERRREPGGYD [DVL3] | 5.13 ± 0.26 | 5.18 ± 0.19 |  |  |
| YYIDDVFHALVREIRRKEKEAVLA [RIT1] | 2.27 ± 0.32 | 1.94 ± 0.53 |  |  |
| KQNARFLTSMRRLSSIKRDTNSIA [STX11] | 3.12 ± 0.25 | 3.21 ± 0.2 |  |  |
| KESLETPSNGRIDIKQLIAKKIKL [SOAT1] | 2.55 ± 0.14 | 2.94 ± 0.27 |  |  |
| ALVVPKGNTAVSVLMLLVALLFTG [SCAMP3] | 2.98 ± 0.75 | 2.62 ± 0.45 |  |  |
| GIRLSENVIDRMKESSPSGSKSQR [CHCHD3] | 4.65 ± 0.19 | 4.72 ± 0.2 |  |  |
| KERKKREERERKRRKEEEVQQQKL [FAF2] | 5.09 ± 0.46 | 4.91 ± 0.31 |  |  |
| LALKTPPRVLTLSERPLDFLDLER [MFF] | 2.96 ± 0.45 | 3.1 ± 0.21 |  |  |
| PIRSISLRSCYFSDPDCSMRPTLI [FBXO39] | 2.13 ± 0.36 | 2.07 ± 0.27 |  |  |
| TVTSVSCCHGNTLLAVRSVTDEPV [NEK8] | 3.21 ± 0.23 | 3.14 ± 0.33 |  |  |
| PFLFFGHFWQLFNALTLFNLAQDP [TMEM120A] | 3.35 ± 0.086 | 3.08 ± 0.13 |  |  |
| LIGDFSKGYLFHTVAGKHQDLKYI [CDC25A] | 2.02 ± 0.32 | 1.81 ± 0.43 |  |  |
| MTVKPAKAASLARNLAKRRRTYLG [RSPH3] | 3.16 ± 0.3 | 3.6 ± 0.3 |  |  |
| VRGHHPKSGEEAVTVLEDLEKGLE [ZNF232] | 4.73 ± 0.21 | 4.72 ± 0.63 |  |  |
| ALRNFACLTTGDVIAINYNEKIYE [UFD1] | 2.21 ± 0.49 | 2.29 ± 0.46 |  |  |
| GQVIWGMSWAKLARQATNLKVNFF [FBXO39] | 2.2 ± 0.72 | 2.2 ± 0.52 |  |  |
| SSGGSSGSSSDNRTYRYSNRYCGG [DYRK1B] | 4.04 ± 0.23 | 4.07 ± 0.12 |  |  |
| DNHMSDKDESCYDNAEAAFSDDEE [INTS3] | 5.55 ± 0.18 | 5.29 ± 0.38 |  |  |
| MSKLLKRQNDILQVVSQGWKYFKG [CD207] | 2.28 ± 0.36 | 2.28 ± 0.082 |  |  |
| DINGLRRILDELTLCKADLEAQVE [KRT36] | 3.02 ± 0.33 | 3.14 ± 0.25 |  |  |
| KPKKKKEKKEKEKKKKDKEKEKEK [BRD3] | 5.26 ± 0.097 | 5.19 ± 0.14 |  |  |
| NNVVPIHVPPTTENKPKVQCCQNI [RAB11A] | 4.56 ± 0.15 | 4.57 ± 0.21 |  |  |
| DMKAMSPENQEYFEKHRWPPVWYL [RHOBTB2] | 2.47 ± 0.17 | 2.67 ± 0.36 |  |  |

| Sequence | protein stability index [1] | protein stability index [2] | protein stability index (treatment: DMSO, c terminus: native) | protein stability index (treatment: MLN4924 1 uM, 8 h, c terminus: native) |
| --- | --- | --- | --- | --- |
| QILLEWCRSKTLGYQHVDLQNFSS [SMTNL2] | 2.72 ± 0.56 | 2.49 ± 0.43 |  |  |
| EGHHHDVVACDFSPDGALLATASY [WSB1] | 3.9 ± 0.23 | 4.03 ± 0.18 |  |  |
| QRMRVPEKLKVAPPNADLEQGFQE [MFF] | 4.82 ± 0.19 | 4.74 ± 0.092 |  |  |
| KVTGYLISYSSMLGAVAGLALGPI [MFSD9] | 3.31 ± 0.48 | 2.96 ± 0.28 |  |  |
| PTICMAYLMKTKQFRLKEAFDYIK [DUSP5] | 2.27 ± 0.47 | 2.54 ± 0.31 |  |  |
| EKTFWKEEKSFWEMEKSFREEEKT [CCDC70] | 4.62 ± 0.23 | 4.82 ± 0.26 |  |  |
| LLLFLVFVIVLFFIYHFMQAEEGN [EMD] | 2.23 ± 0.15 | 2.42 ± 0.15 |  |  |
| GIKAQVALRLAELARRRRRRQARR [NOP53] | 4.1 ± 0.34 | 3.85 ± 0.25 |  |  |
| RRLRGEQRGQEPLGPGALHFDLRD [TCF25] | 4.24 ± 0.22 | 4.43 ± 0.21 |  |  |
| GGEFQCGLEAASVYSDHTNTNNLT [RNF180] | 2.42 ± 0.36 | 2.42 ± 0.29 |  |  |
| LSSSSARFLSRSIPSLQSEYVHY [CDC14A] |  |  | 3.19 ± 0.27 | 3.06 ± 0.26 |
| PRMCRYVRERDRLGNEYPKLHYPE [CDC25A] | 3.08 ± 0.12 | 3.15 ± 0.34 |  |  |
| DSTKTAFHRSQTLSYRNGYAIVRR [EFHC1] | 3.31 ± 0.12 | 3.48 ± 0.32 |  |  |
| ETLSGDRVRLDSELRNVQDVVEDY [KRT71] | 5.16 ± 0.19 | 5.36 ± 0.18 |  |  |
| SKVIEILDSQTEIYQYVQNSMAPH [DLC1] | 2.6 ± 0.3 | 2.71 ± 0.28 |  |  |
| DMNGKSLHGKAIKVEQAKKPSFQS [RBMY1A1] | 3.16 ± 0.2 | 3.61 ± 0.2 |  |  |
| PFYTSRIDEVLLHQDVDLVCINLP [GFOD1] | 2.08 ± 0.18 | 2.21 ± 0.35 |  |  |
| PSLQHLCRMSIRRVMPTQEVQELP [WSB1] | 3.34 ± 0.43 | 2.8 ± 0.35 |  |  |
| NHFVWRLIPVPMATQIQQLLQDKQ [VPS39] | 2.3 ± 0.44 | 2.16 ± 0.31 |  |  |
| EEPENGEPTAAATARRSKRERREE [PWWP2B] | 5.63 ± 0.29 | 5.8 ± 0.14 |  |  |
